The conditions of the data set: Escherichia coli (strain K12); pH 7.8; 25 °C; Urea; Absorbance; Potassium phosphate 10 mM; transition: 3; whole UniProt chain shown.

“And” between values parts separate entries of the source, which are not always exact repeats. Equal entries are not always repeated.

B1: Tryptophan synthase alpha chain wild type, P0A877 (protein)
chain: MERYESLFAQLKERKEGAFVPFVTLGDPGIEQSLKIIDTLIEAGADALELGIPFSDPLADGPTIQNATLRAFAAGVTPAQCFEMLALIRQKHPTIPIGLLMYANLVFNKGIDEFYAQCEKVGVDSVLVADVPVEESAPFRQAALRHNVAPIFICPPNADDDLLRQIASYGRGYTYLLSRAGVTGAENRAALPLNHLVAKLKEYNAAPPLQGFGISAPDQVKAAIDAGAAGAISGSAIVKIIEQHINEPEKMLAALKVFVQPMKAATRS
Consider B1, for which the denaturant m value is 2.2 kcal/mol/M and 1.2 kcal/mol/M; the “denaturant midpoint (higher = more stable)” value is 2.62 M and 4.18 M.

The record behind these values is FireProtDB (doi:10.1021/bi00369a002).
